From publication PMC3448639

How the values were obtained:
Settings in all cases: glycan lost; control: wild type
[1] = selective uptake of [3H]COE from HDL
[2] = [3H]cholesterol release from cells to HDL
[3] = flow cytometry, extracellular-domain antibody
[4] = cell surface biotinylation, immunoblot densitometry
[5] = cholesterol oxidase sensitivity, cholestenone by TLC

B1: SR-BI (scavenger receptor class B type I; CLA-1): T175A (protein)
parent chain: MGCSAKARWAAGALGVAGLLCAVLGAVMIVMVPSLIKQQVLKNVRIDPSSLSFNMWKEIPIPFYLSVYFFDVMNPSEILKGEKPQVRERGPYVYREFRHKSNITFNNNDTVSFLEYRTFQFQPSKSHGSESDYIVMPNILVLGAAVMMENKPMTLKLIMTLAFTTLGERAFMNRTVGEIMWGYKDPLVNLINKYFPGMFPFKDKFGLFAELNNSDSGLFTVFTGVQNISRIHLVDKWNGLSKVDFWHSDQCNMINGTSGQMWPPFMTPESSLEFYSPEACRSMKLMYKESGVFEGIPTYRFVAPKTLFANGSIYPPNEGFCPCLESGIQNVSTCRFSAPLFLSHPHFLNADPVLAEAVTGLHPNQEAHSLFLDIHPVTGIPMNCSVKLQLSLYMKSVAGIGQTGKIEPVVLPLLWFAESGAMEGETLHTFYTQLVLMPKVMHYAQYVLLALGCVLLLVPVICQIRSQVGAGQRAARADSHSLACWGKGASDRTLWPTAAWSPPPAAVLRLCRSGSGHCWGLRSTLASFACRVATTLPVLEGLGPSLGGGTGS
In the case of B1, the “other: transport activity” value [1] is reported as “decreases”, the “other: free cholesterol efflux” value [2] is reported as “decreases” and the localisation_or_trafficking [3] is reported as “decreases”. The “localisation_or_trafficking, percent_of_wt” value [4] was “decreases, more than 50% less vs 100” and the “other: plasma membrane free cholesterol redistribution” value [5] was “decreases”.
